Our source for the Kd values is patent US20030068675, “Position dependent recognition of GNN nucleotide triplets by zinc fingers” (published 2003).

Usually Kd stands for the equilibrium constant for the complex coming apart. Low readings indicate a tighter complex, high ones a looser complex.

Holding throughout (assay): EMSA
Details in all cases: tags: MBP fusion
(In general: Mobility shift assays separate free from complexed probe on a gel.)

In data set [1] the target is ZFP SBS#1403 (synthetic). In outline: (§1)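 Purified ZFP was titrated against labeled double-stranded target (1 nM or lower, at least 10-fold below expected Kd) carrying the natural binding site with flanks. Binding buffer was 10 mM Tris pH 7.5, 100 mM KCl, 1 mM MgCl2, 0.1 mM ZnCl2, 5 mM DTT, 10% glycerol, 0.02% BSA, with equilibration for at least 45 min. Bound and free target were separated on a 10% polyacrylamide gel.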

The target in data set [2] is T1, ZFP SBS#1405 (synthetic).
T1 chain: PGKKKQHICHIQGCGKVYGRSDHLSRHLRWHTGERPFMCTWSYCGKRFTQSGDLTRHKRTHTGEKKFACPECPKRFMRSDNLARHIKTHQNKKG
Put shortly: as §1

The target of data set [3] is T2, ZFP SBS#1404 (synthetic).
T2 chain: T1 chain with D53S
Put shortly: as §1

Data set [4] has as its target T3, ZFP SBS#1381 (synthetic).
T3 chain: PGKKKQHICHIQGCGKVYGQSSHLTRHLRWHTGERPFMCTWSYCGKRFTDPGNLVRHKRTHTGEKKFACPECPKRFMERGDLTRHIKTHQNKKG
Put shortly:
as §1

Data set [5] has as its target T4, ZFP SBS#1382 (synthetic).
T4 chain: T3 chain with P51R, G52S, V55T, E78D, R79C, G80R, T83A
In outline:
as §1

The target in data set [6] is T5, ZFP SBS#1380 (synthetic).
T5 chain: T3 chain with P51R, G52S, V55T
Put shortly: as §1

In data set [7] the target is T6, ZFP SBS#1383 (synthetic).
T6 chain: T3 chain with E78D, R79C, G80R, T83A
Put shortly: as §1

The target of data set [8] is T7, ZFP SBS#1408 (synthetic).
T7 chain: T1 chain with D53S, N81E, A83R, R84E
Put shortly: as §1

For data set [9], the target named is T8, ZFP SBS#1409 (synthetic).
T8 chain: T1 chain with D53S, N81D, A83R, R84E
Put shortly: as §1

The target of data set [10] is T9, ZFP SBS#1373 (synthetic, UniProt P08047).
T9 chain: T1 chain with R20D, S21R, D22S, S25T, Q50R, G52D, D53A, T55S, N81A, A83T
Put shortly: as §1

Data set [11] addresses T10, ZFP SBS#1386 (synthetic).
T10 chain: T1 chain with R20E, S21N, D22W, H23K, S25Q, R26A, D53S, N81H, A83T, R84T
In outline: as §1

Data set [12] addresses ZFP SBS#1385 (synthetic). In outline:
as §1

The target of data set [13] is T11, ZFP SBS#1400 (synthetic).
T11 chain: T1 chain with H23N, S25A, G52S, D53H, T55A, N81D, A83R, R84E
In outline: as §1

The target of data set [14] is T12, ZFP SBS#1389 (synthetic).
T12 chain: T1 chain with S25T, R26T, Q50D, S51C, G52R, T55A, N81A, A83R, R84E
Put shortly: as §1

Data set [15] concerns the target T13, ZFP SBS#1329 (synthetic).
T13 chain: T1 chain with S25T, R26T, Q50D, S51R, G52S, N81A, A83R, R84E
Put shortly: as §1

For data set [16], the target named is T14, ZFP SBS#1331 (synthetic).
T14 chain: T1 chain with S25T, R26T, Q50D, S51C, G52R, T55A, N81A, A83R, R84E
In outline:
as §1

Data set [17] concerns the target T15, ZFP SBS#1384 (synthetic, UniProt P08047).
T15 chain: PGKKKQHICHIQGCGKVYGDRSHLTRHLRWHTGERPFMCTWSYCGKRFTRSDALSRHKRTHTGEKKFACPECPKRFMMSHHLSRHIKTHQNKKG
Put shortly:
as §1

For data set [18], the target named is ZFP SBS#262 (synthetic). In outline: as §1
ZFP SBS#262 (synthetic), sequence (chain, as listed by the source): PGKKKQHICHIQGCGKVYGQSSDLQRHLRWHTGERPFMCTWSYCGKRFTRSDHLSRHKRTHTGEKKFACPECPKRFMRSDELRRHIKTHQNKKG
Data set [19] addresses ZFP SBS#263 (synthetic, UniProt P08047). Put shortly: as §1
Data set [20] concerns the target T16, ZFP SBS#1369 (synthetic).
T16 chain: T1 chain with R20Q, D22S, H23N, S25A, D53H, N81A, A83R, R84E
Put shortly:
as §1

The target of data set [21] is T17, ZFP SBS#1368 (synthetic).
T17 chain: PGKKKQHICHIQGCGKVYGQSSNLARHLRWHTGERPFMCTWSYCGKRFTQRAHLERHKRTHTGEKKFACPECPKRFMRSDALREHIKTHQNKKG
Put shortly:
as §1

Data set [22] addresses T18, ZFP SBS#1379 (synthetic).
T18 chain: T1 chain with H23A, S25T, Q50R, G52D, D53E, L54R, T55K, N81D, A83R, R84E
Put shortly:
as §1

The target of data set [23] is T19, ZFP SBS#1378 (synthetic).
T19 chain: T1 chain with H23A, S25T, Q50R, G52D, T55Q, N81D, A83R, R84E
Put shortly: as §1

In data set [24] the target is T20, ZFP SBS#1375 (synthetic).
T20 chain: T1 chain with H23A, S25T, Q50R, G52D, T55Q, N81E, A83R, R84E
Put shortly: as §1

Data set [25] deals with T21, ZFP SBS#1377 (synthetic, UniProt P08047).
T21 chain: T1 chain with H23A, S25T, Q50R, G52D, D53E, T55Q, N81D, A83R, R84E
Put shortly: as §1

For data set [26], the target named is T22, ZFP SBS#1376 (synthetic).
T22 chain: T1 chain with H23A, S25T, Q50R, G52D, D53E, L54R, T55K, N81E, A83R, R84E
In outline: as §1

Data set [27] concerns the target T23, ZFP SBS#1374 (synthetic, UniProt P08047).
T23 chain: T1 chain with H23A, S25T, Q50R, G52D, D53E, T55Q, N81E, A83R, R84E
Put shortly:
as §1

Data set [28] concerns the target ZFP SBS#1394 (synthetic, UniProt P08047). Put shortly:
as §1

The target of data set [29] is ZFP SBS#1393 (synthetic). Put shortly:
as §1

In data set [30] the target is ZFP SBS#1407 (synthetic). Put shortly: as §1
ZFP SBS#1407 (synthetic), sequence (chain, as listed by the source): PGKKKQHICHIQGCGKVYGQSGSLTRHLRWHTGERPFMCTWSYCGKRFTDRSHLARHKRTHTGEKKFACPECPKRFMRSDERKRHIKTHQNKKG
In data set [31] the target is ZFP SBS#1397 (synthetic). In outline:
as §1

In data set [32] the target is T24, ZFP SBS#1396 (synthetic).
T24 chain: T15 chain with D20Q, S22A, T25A, A53N, S55A, M78Q, H80G, H81N, S83A
Put shortly:
as §1

Data set [33] deals with ZFP SBS#1395 (synthetic). In outline: as §1
ZFP SBS#1395 (synthetic), sequence (chain, as listed by the source): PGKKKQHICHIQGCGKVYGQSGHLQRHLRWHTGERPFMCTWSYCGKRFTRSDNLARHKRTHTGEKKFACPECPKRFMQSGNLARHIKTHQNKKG
Data set [34] addresses ZFP SBS#1406 (synthetic). Put shortly:
as §1

Substitutions are numbered along the chain they refer to.

ZFP SBS#1397 (synthetic), sequence (chain, as listed by the source): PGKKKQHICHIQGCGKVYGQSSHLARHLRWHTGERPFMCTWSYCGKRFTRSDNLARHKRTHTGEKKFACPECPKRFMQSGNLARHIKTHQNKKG
ZFP SBS#263, sequence (P08047 other isoform, or with tags, fused parts or gaps): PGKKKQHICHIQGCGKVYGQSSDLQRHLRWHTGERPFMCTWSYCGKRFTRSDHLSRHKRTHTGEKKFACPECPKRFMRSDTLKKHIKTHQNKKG
ZFP SBS#1394, sequence (P08047 other isoform, or with tags, fused parts or gaps): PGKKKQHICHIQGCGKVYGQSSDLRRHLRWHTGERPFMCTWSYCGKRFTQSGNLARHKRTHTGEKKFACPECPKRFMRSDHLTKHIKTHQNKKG
ZFP SBS#1406 (synthetic), sequence (chain, as listed by the source): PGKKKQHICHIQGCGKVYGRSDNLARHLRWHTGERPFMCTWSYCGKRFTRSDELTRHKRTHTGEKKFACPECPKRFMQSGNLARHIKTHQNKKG
ZFP SBS#1385 (synthetic), sequence (chain, as listed by the source): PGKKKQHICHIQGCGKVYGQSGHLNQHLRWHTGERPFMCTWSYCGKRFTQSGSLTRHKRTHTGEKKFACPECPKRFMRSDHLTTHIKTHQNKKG

B1: ATGGCAATG (dsDNA)
DNA 1: ATGGCAATG
DNA 2: CATTGCCAT
On to B1, for which the dissociation constant (Kd) in data set [1] was 0.07 nM.

B2: GAGGCAGGG (dsDNA)
DNA 1: GAGGCAGGG
DNA 2: CCCTGCCTC
Take B2: the values for the Kd in data set [2] and in data set [3] were 0.045 nM and 0.022 nM, respectively.

B3: GCCGACGGT (dsDNA)
DNA 1: GCCGACGGT
DNA 2: ACCGTCGGC
In the case of B3, the Kd in [4] stood at 0.23 nM; in data set [5] it was 3.1 nM; in [6] it was 0.076 nM; in [7] it was 1.74 nM.

B4: CCGGCAGGG (dsDNA)
DNA 1: CCGGCAGGG
DNA 2: CCCTGCCGG
For the molecule B4, the Kd in data set [8] worked out at 0.305 nM; in [9] it was 0.153 nM.

B5: GTGGTGGGC (dsDNA)
DNA 1: GTGGTGGGC
DNA 2: GCCCACCAC
As to B5, the Kd in data set [10] was 0.025 nM.

B6: TGGGCAAGA (dsDNA)
DNA 1: TGGGCAAGA
DNA 2: TCTTGCCCA
In the case of B6, the Kd in data set [11] was determined as 0.193 nM; in data set [12], 0.229 nM.

B7: CCGGGTGAG (dsDNA)
DNA 1: CCGGGTGAG
DNA 2: CTCACCCGG
The molecule B7 came in with a Kd in data set [13] of 0.371 nM.

B8: CTGGCCTGG (dsDNA)
DNA 1: CTGGCCTGG
DNA 2: CCAGGCCAG
B8: the Kd in data set [14] worked out at 0.175 nM; in [15] it was 0.68 nM; in [16], 0.388 nM.

B9: GGTGTGGGC (dsDNA)
DNA 1: GGTGTGGGC
DNA 2: GCCCACACC
Take B9: the Kd in [17] is 0.013 nM.

B10: GCGGGGGCT (dsDNA)
DNA 1: GCGGGGGCT
DNA 2: AGCCCCCGC
With B10, the Kd came out at 20 nM in data set [18] and 1 nM in data set [19].

B11: CTGGGAGAT (dsDNA)
DNA 1: CTGGGAGAT
DNA 2: ATCTCCCAG
Consider B11, for which the Kd stood at 0.227 nM in data set [20] and 0.051 nM in data set [21].

B12: CCGGCGGTG (dsDNA)
DNA 1: CCGGCGGTG
DNA 2: CACCGCCGG
In the case of B12, the Kd in data set [22] came to 0.25 nM; in data set [23], 0.012 nM; in data set [24], 8 pM; in data set [25], 0.012 nM; in data set [26], 0.858 nM; in data set [27], 3 pM.

B13: TGGGAAGCT (dsDNA)
DNA 1: TGGGAAGCT
DNA 2: AGCTTCCCA
For B13, the Kd in data set [28] came out at 0.04 nM; in [29], 0.1 nM.

B14: GCGGGCGCA (dsDNA)
DNA 1: GCGGGCGCA
DNA 2: TGCGCCCGC
As for B14, the Kd in data set [30] is 0.585 nM.

B15: GAAGAGGGA (dsDNA)
DNA 1: GAAGAGGGA
DNA 2: TCCCTCTTC
Regarding B15, the Kd in data set [31] is 0.14 nM; in data set [32], 0.107 nM; in [33], 0.025 nM.

B16: GAAGCGGAG (dsDNA)
DNA 1: GAAGCGGAG
DNA 2: CTCCGCTTC
Turning to B16, in [34], the dissociation constant Kd worked out at 0.025 nM.
